This note sets out measurements from patent US20210238262A1 (published 2021).

One experiment has as its target MZ2. Nature of the experiment: BLI; Fab. For orientation: BLI is a label-free optical method that tracks binding on a fibre tip over time.
In experiment [1] the target is T1, Recombinant DENV-2 sE (1-396) from strain 16681-PDK53 with C-terminal AviTag and poly-histidine tags (UniProt P29991 281-676, biotinylated on the AviTag for BLI).
T1 chain: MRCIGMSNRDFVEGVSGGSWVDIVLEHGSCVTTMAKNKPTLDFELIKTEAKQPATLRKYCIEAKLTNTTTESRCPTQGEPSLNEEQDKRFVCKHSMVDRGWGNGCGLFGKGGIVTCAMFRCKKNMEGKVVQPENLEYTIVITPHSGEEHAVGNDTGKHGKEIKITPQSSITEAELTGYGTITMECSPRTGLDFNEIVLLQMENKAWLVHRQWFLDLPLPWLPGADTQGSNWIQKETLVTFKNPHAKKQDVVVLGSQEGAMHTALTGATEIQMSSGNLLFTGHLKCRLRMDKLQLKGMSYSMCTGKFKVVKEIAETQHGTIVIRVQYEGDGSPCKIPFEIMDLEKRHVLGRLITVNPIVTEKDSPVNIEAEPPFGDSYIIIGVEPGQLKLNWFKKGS
As to the kind of experiment: BLI; Fab.

B1: DENV-2 E (other)
chain: MRCIGMSNRDFVEGVSGGSWVDIVLEHGSCVTTMAKNKPTLDFELIKTEAKQPATLRKYCIEAKLTNTTTESRCPTQGEPSLNEEQDKRFVCKHSMVDRGWGNGCGLFGKGGIVTCAMFRCKKNMEGKVVQPENLEYTIVITPHSGEEHAVGNDTGKHGKEIKITPQSSITEAELTGYGTITMECSPRTGLDFNEIVLLQMENKAWLVHRQWFLDLPLPWLPGADTQGSNWIQKETLVTFKNPHAKKQDVVVLGSQEGAMHTALTGATEIQMSSGNLLFTGHLKCRLRMDKLQLKGMSYSMCTGKFKVVKEIAETQHGTIVIRVQYEGDGSPCKIPFEIMDLEKRHVLGRLITVNPIVTEKDSPVNIEAEPPFGDSYIIIGVEPGQLKLNWFKKGS
modifications: biotinylated on the AviTag for BLI
What is called Kd is the concentration at which binding is half-saturated. In the case of B1, binding with MZ2 was characterised by a dissociation constant (Kd) of 400 pM.

B2: MZ4 Fab (Fab, V domains shown)
VH: QVHLQESGPGLVRPSETLSLTCTVSDGSISSYYWSWIRQPPGKGLEWIGSIYYTGSTNYNPSLKSRVTMSVDTSKNQFSLRLNSVTAADTAMYYCAGLDRYSWNEGGDHWGQGILVSVSS
VL: QPVLTQPPSASGTPGQRVSISCSGSRSNLGKNTVNWYQQLPGTAPKLLIYNHSRRPSGVPERFSGSKSGTSASLAISGLQSEDEADYFCAAWDDSLNGLYVFGTGTKVTVLR
As to B2, the Kd in experiment [1] came to 1000 pM.
